# Residue numbers refer to the chain shown, from its start. Names may count otherwise.
# T1: human LRP5 domains E3-E4 (E644-Q1263 of SEQ ID NO: 42) (human, UniProt O75197 644-1263)
# T1 construct: Soluble fragment made in-house; It was biotinylated for phage sorting; also called LRP5-E3/E4; LRP5E3/E4
# T1 sequence: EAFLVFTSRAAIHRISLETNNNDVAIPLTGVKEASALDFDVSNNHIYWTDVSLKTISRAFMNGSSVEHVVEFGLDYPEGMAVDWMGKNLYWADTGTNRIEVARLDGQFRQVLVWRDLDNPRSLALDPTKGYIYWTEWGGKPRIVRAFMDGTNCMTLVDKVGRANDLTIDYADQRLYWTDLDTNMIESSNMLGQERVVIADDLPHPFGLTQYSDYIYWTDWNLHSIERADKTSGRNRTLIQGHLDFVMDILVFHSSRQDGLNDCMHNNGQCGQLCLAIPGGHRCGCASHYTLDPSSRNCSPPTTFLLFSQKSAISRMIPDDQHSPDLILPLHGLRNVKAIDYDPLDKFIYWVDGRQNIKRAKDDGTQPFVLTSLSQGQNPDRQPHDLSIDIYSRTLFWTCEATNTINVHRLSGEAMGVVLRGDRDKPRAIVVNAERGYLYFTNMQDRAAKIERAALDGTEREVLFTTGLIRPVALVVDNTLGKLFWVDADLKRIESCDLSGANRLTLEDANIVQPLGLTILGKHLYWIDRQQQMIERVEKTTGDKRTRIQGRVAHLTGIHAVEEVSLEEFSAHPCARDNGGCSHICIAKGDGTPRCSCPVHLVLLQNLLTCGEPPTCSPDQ
# B1: YW629.51 (antibody, human IgG1, V domains shown)
# VH: EVQLVESGGGLVQPGGSLRLSCAASGFTFSSYAMHWVRQAPGKGLEWVSRISSNGGSTYYADSVKGRFTISRDNSKNTLYLQMNSLRAEDTAVYYCARWIPQSYPFASYKSGFDYWGQGTLVTVSS
# VL: DIQMTQSPSSLSASVGDRVTITCRASQGISSYLAWYQQKPGKAPKLLIYDASSLESGVPSRFSGSGSGTDFTLTISSLQPEDFATYYCQQYYSYPFTFGQGTKVEIKR
# notes: also called P6C.51; bivalent LRP5 antibody (P6C.51)
# B2: YW629.42 (antibody, human IgG1, V domains shown)
# VH: EVQLVESGGGLVQPGGSLRLSCAASGFTFSSYAMSWVRQAPGKGLEWVGAISSSGSSTYYADSVKGRFTISRDNSKNTLYLQMNSLRAEDTAVYYCARYYRYAPYRSLGMDVWGQGTLVTVSS
# VL: B1 VL with D50A, E55Q
# notes: also called P6C.42
# B3: YW629.42.57 (antibody, human IgG1, V domains shown)
# VH: B2 VH with S53A, S54P
# VL: B1 VL with D50A, E55Q
# notes: also called P6C.42.57
# B4: YW629.51.80 (antibody, human IgG1, V domains shown)
# VH: B1 VH
# VL: B1 VL with G28A, S30Y
# notes: also called P6C.51.80
# B5: YW629.51.13 (antibody, human IgG1, V domains shown)
# VH: B1 VH with A107R
# VL: B1 VL
# notes: also called P6C.51.13
# B6: YW629.51.77 (antibody, human IgG1, V domains shown)
# VH: B1 VH
# VL: B1 VL with G28V, S30Y, S31G, S53T, L54R
# notes: also called P6C.51.77
# B7: YW629.42.65 (antibody, human IgG1, V domains shown)
# VH: B2 VH with A50G, S54P
# VL: B1 VL with D50A, E55Q, S93L
# notes: also called P6C.42.65
# B8: YW629.51.63 (antibody, human IgG1, V domains shown)
# VH: B1 VH
# VL: B1 VL with G28S, S30Y, S31Y
# notes: also called P6C.51.63
# B9: YW629.51.78 (antibody, human IgG1, V domains shown)
# VH: B1 VH
# VL: B1 VL with S30F, S31Y, S53T
# notes: also called P6C.51.78
# B10: YW629.51.61 (antibody, human IgG1, V domains shown)
# VH: B1 VH
# VL: B1 VL with G28V, I29M, S30G, S31Y
# notes: also called P6C.51.61; PC6.51.61
# B11: YW629.42.58 (antibody, human IgG1, V domains shown)
# VH: B2 VH with S54P, S56W
# VL: B1 VL with D50A, E55Q
# notes: also called P6C.42.58
# Biological target: T1, human LRP5 domains E3-E4 (E644-Q1263 of …)
# Assay: SPR, BIAcore T100, IgG captured by anti-human Fc, LRP5E3/E4 as analyte, 25 C
# Method: Binding affinities of anti-LRP5E3/E4 IgGs were measured by Surface Plasmon Resonance (SPR) using a BIAcore™-T100 instrument. Anti-LRP5E3/E4 human IgGs were captured by mouse anti-human Fc antibody (GE Healthcare, cat# BR-1008-39) coated on CM5 biosensor chips to achieve approximately 200 response units (RU). For kinetics measurements, two-fold serial dilutions ([…]) of human LRP5E3/E4 (GNE) were injected in HBS-P buffer (10 mM HEPES, pH 7.4, 0.15 M NaCl, 0.005% surfactant P20) at 25° C. with a flow rate of 30 μl/min. Association rates (kₒₙ) and dissociation rates (koff) were calculated using a simple one-to-one Langmuir binding model (BIAcore Evaluation Software version 2.0.2). The equilibrium dissociation constant (KD) was calculated as the ratio koff/kₒₙ.
Kd,koff,kon,Binder
13 nM,0.00309 s⁻¹,237000 M⁻¹ s⁻¹,B1
51.6 nM,0.00116 s⁻¹,22600 M⁻¹ s⁻¹,B2
5.42 nM,0.000163 s⁻¹,30100 M⁻¹ s⁻¹,B3
0.268 nM,0.000104 s⁻¹,387000 M⁻¹ s⁻¹,B4
1.13 nM,0.000369 s⁻¹,327000 M⁻¹ s⁻¹,B5
0.438 nM,0.000165 s⁻¹,376000 M⁻¹ s⁻¹,B6
2.54 nM,9.63e-05 s⁻¹,37900 M⁻¹ s⁻¹,B7
0.592 nM,0.000199 s⁻¹,337000 M⁻¹ s⁻¹,B8
0.192 nM,7.24e-05 s⁻¹,378000 M⁻¹ s⁻¹,B9
0.47 nM,0.000115 s⁻¹,244000 M⁻¹ s⁻¹,B10
2.78 nM,8.69e-05 s⁻¹,31300 M⁻¹ s⁻¹,B11

# Biological target: LRP5 (transfected into reporter cells)
# Assay: cell-based or functional assay
"TOPFlash luciferase reporter, recombinant Norrin (cells transfected with LRP5 and FZD-4)","TOPFlash luciferase reporter, Norrin as ligand (cells transfected with LRP5 and FZD-4)","TOPFlash luciferase reporter, Wnt7b as ligand (cells transfected with LRP5 and FZD-4)",Binder
> 2 fold,–,–,B1
–,3 fold,2 fold,B10
